Publication PMC10017700, “The SMARCA4^R1157W mutation facilitates chromatin remodeling and confers PRMT1/SMARCA4 inhibitors sensitivity in colorectal cancer” (NPJ Precision Oncology, 2023)

Key:
[1] = test system: ATP (ATPase activity of SMARCA4); test: ATPase kinetic assay (ATPase activity assay kit); format: biochemical
Description: An ATPase activity assay kit (#MAK113, Sigma,) was used to measure the Kinetic parameters (Vmax, Km, and Kcat) of SMARCA4 on ATP. In detail, SMARCA4-WT and -R1157W mutant proteins were incubated with saturating amounts of plasmid DNA and various concentrations of ATP. Reaction rates were determined by quantitating the fraction of ATP hydrolyzed at multiple time points. Kinetic parameters were determined by fitting the initial rate data to the Michaelis–Menten equation using the Origin software. All reactions were performed in triplicate.

[2] = test system: ATP (ATPase activity of SMARCA4); test: ATPase assay, γ-32P ATP thin-layer chromatography; format: biochemical; details: in the presence of DNA, TLC, 30 °C, 0-90 min, Fig. 4b
Description: The ATPase assays were performed as described previously with modifications. The 20 μl reactions contained 50 mM Tris (pH 7.5), 50 mM NaCl, 8 mM MgCl2, 0.5 mM PMSF, 2 mM ATP, 2 mM DTT, and 1 μg of a 1 kb DNA fragment. The reaction was initiated by adding 1 μl of 10 mCi/ml [γ-^32P] ATP (3000 Ci/mmole; PerkinElmer) and 1 μg of SMARCA4 wild-type or mutant proteins. The reactions were then incubated at 30 °C for the indicated times (0, 15, 30, 60, and 90 min) and were stopped by the addition of 5 μl of 500 mM EDTA. One microliter of the reaction mixture was spotted onto PEI-cellulose TLC plates (Merck), and chromatography was run in 0.5 M LiCl, 1 M formic acid. The ratio of inorganic phosphate to ATP at each time point was quantified using a Molecular Dynamics Phosphorimager (Amersham Biosciences) and ImageQuant TL software.

mononucleosomes = test: Nucleosome sliding assay; format: biochemical; details: 60 or 90 min, 30 °C, 2 mM ATP, Fig. 4c
Description: The nucleosome sliding assay was performed as previously described with several modifications[41],[47]. A 255 bp DNA template from the Widom 601 positioning sequence[48] was assembled into mononucleosomes by the “salt jump” method in the presence of core histones isolated from HeLa cells. Mononucleomes (100 ng DNA) were incubated with wild-type or mutant SMARCA4 proteins (100 ng) in 40 μl reactions containing 20 mM HEPES–NaOH (pH 7.9), 50 mM MgCl2, 1 mM DTT, 0.1 mM PMSF, 0.1 mg/ml BSA, 3% glycerol, 0.02% NP-40, 0.02% Triton X-100, 2 mM ATP at 30 °C for 0, 30, 60, or 90 min. Reactions were quenched by the addition of 20 mM EDTA and 1% glycerol. Samples were resolved by 6% native polyacrylamide/0.5×TBE gel electrophoresis and visualized by SYBR green staining (Invitrogen).

SMARCA2 and SMARCA4 = details: SMARCA bromodomain inhibitor; cited from earlier work
Text: However, SMARCA2, another core subunit of the SWI/SNF complex with ATPase activity, also harbors a highly conserved HELICc domain (Supplementary Fig. 7a). […] It would be interesting to test whether other HELICc domain-containi ...

[3] = test system: SMARCA4-WT HCT116 cell line-derived xenograft; test: CDX mouse model, SMARCA4-WT; format: in vivo, BALB/c female nude mice; details: oral, 14 days
Description: (§1) To establish cell line-derived xenograft (CDX) mouse models, 6-week-old BALB/c female nude mice were obtained from the Model Animal Research Center of Nanjing University (Nanjing, China). All animal experimental procedures were approved by the Animal Ethical and Welfare Committee of Nanjing University. Approximately 5 × 10^6 SMARCA4 wild-type or R1157W mutant HCT116 cells were injected subcutaneously into the right flank of each mouse. The mice were randomized into 4 groups (6 mice/group) when the tumor volume reached approximately 80 mm^3 (volume = 0.52 × length × width^2), at which point drug dosing every day was initiated. GSK-PTi (GSK3368715, HY-128717A, MCE)[32] and BBAi-1 (BRM/BRG1 ATP inhibitor-1, HY-119374, MCE)[33] were dissolved in 10% DMSO, 90% saline (containing 20% SBE-β-CD). GSK-PTi (25 mg/kg) and BBAi-1 (2.5 mg/kg) were administered orally. Body weight and tumor volume of the mice were measured every two days. Treatments were continued for 14 days, after which all mice were euthanized for analysis. Tumor tissues were weighed and prepared for immunoblotting or immunohistochemical staining. Tumor growth inhibition (TGI) rate was measured using the formula: TGI (%) = [1−(Vt−V0 in treated group)/Vt−V0 in vehicle group)]×100 where Vt is the volume on each day and V0 is the volume at the beginning of the treatment.

[4] = test system: SMARCA4-R1157W mutant HCT116 cell line-derived xenograft; test: CDX mouse model, SMARCA4-R1157W; format: in vivo, BALB/c female nude mice; details: oral, 14 days
Description: as §1

[5] = saturating plasmid DNA, various ATP concentrations, Michaelis–Menten fit, triplicate, mean ± SD
[6] = over 2-fold higher, Supplementary Fig. 5c, d
[7] = GSK-PTi 25 mg/kg and/or BBAi-1 2.5 mg/kg, daily, 6 mice/group

For “SMARCA4-R1157W: R1157W mutant SMARCA4 protein”, the “Kcat / Km” value ([1]; saturating plasmid DNA, various ATP concentrations) was 17.47 M⁻¹ s⁻¹, the Kcat [1, 5] was 0.00242 ± 6.7e-05 s⁻¹ and the Km [1, 5] was 138 ± 17.4 µM. For the same molecule, the Vmax [1, 5] was 241.6 ± 8.16 mM/min/mg, the “ATPase activity compared to SMARCA4-WT” value [2] was “significantly augmented” and the “lateral sliding of centrally positioned nucleosomes compared to SMARCA4-WT” value (mononucleosomes) was “further catalyzed lateral sliding of centrally positioned nucleosomes”.

For “SMARCA4-WT mutant: as printed; probably misprint for SMARCA4-R1157W mutant protein”, the “Kcat relative to SMARCA4-WT protein” value [1, 6] was “over 2 fold” and the “Vmax relative to SMARCA4-WT protein” value [1, 6] was “over 2 fold”.

In the case of `O=C(/C=C/N1C[C@H]2C[C@@H]1CN2c1ccccn1)c1ccccc1O` [PFI-3], the “differentiation between SMARCA2 and SMARCA4” value (SMARCA2 and SMARCA4) is listed as “could not differentiate between SMARCA2 and SMARCA4”.

In the case of `CCOCC1(COCC)CCC(c2[nH]ncc2CN(C)CCNC)CC1` [GSK-PTi], the “tumor growth inhibition (TGI) rate” value [3, 7] is reported as 23%, the “therapeutic effect of daily single treatment” value [3] is reported as “moderate therapeutic effect” and the “tumor growth inhibition (TGI) rate” value [4, 7] is reported as 45.3%. For the same molecule, the “therapeutic effect of daily single treatment (versus SMARCA4-WT CDX)” value [4] was “better therapeutic effect” and the “effect in SMARCA4-R1157W mutant versus SMARCA4-WT model mice” value ([4]; daily, comparison of the two model mouse groups) was “no statistically significant differences”.
